# Experimental data: IntAct's records for PubMed 10660620
# B1: Paired immunoglobulin-like type 2 receptor alpha (Homo sapiens), Q9UKJ1 (parent)
# chain: MGRPLLLPLLPLLLPPAFLQPSGSTGSGPSYLYGVTQPKHLSASMGGSVEIPFSFYYPWELATAPDVRISWRRGHFHRQSFYSTRPPSIHKDYVNRLFLNWTEGQKSGFLRISNLQKQDQSVYFCRVELDTRSSGRQQWQSIEGTKLSITQAVTTTTQRPSSMTTTWRLSSTTTTTGLRVTQGKRRSDSWHISLETAVGVAVAVTVLGIMILGLICLLRWRRRKGQQRTKATTPAREPFQNTEEPYENIRNEGQNTDPKLNPKDDGIVYASLALSSSTSPRAPPSHRPLKSPQNETLYSVLKA
# Variants of: B1
# Conditions: with ptn6_human PTPN6, P29350
# Chain of ptn6_human PTPN6, P29350 (P29350 whole entry): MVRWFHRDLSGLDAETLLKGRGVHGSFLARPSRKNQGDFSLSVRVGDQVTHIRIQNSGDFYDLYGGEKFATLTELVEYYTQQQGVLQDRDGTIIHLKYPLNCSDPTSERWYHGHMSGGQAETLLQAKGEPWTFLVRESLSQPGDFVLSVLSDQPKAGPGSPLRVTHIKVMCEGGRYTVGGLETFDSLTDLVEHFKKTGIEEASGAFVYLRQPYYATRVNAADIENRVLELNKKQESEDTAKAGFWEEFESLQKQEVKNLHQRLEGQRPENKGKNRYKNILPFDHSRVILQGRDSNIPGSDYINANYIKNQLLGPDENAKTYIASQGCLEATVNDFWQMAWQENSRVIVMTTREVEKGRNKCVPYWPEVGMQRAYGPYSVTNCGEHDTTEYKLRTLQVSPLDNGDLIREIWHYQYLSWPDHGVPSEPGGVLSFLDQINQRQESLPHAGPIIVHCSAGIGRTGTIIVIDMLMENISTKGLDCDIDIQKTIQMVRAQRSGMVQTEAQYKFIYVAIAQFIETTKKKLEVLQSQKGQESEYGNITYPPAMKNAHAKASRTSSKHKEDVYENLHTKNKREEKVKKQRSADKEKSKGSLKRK
row,effect of a mutation on the interaction,Variant
1,decreasing interaction,Y269F;Y298F
2,decreasing interaction,Y269F
